# Reference: patent US20190248902A1 (published 2019)
# Numbering of substitutions follows the chain as printed.
# T1: human ASGR-1 (human, UniProt P07306 1-291)
# T1 construct: Stably expressed on CHO-S cells (CHO-S:huASGR-1); The method text says human or mouse ASGR-1 cells were used; also called huASGR-1; hASGR-1
# T1 sequence: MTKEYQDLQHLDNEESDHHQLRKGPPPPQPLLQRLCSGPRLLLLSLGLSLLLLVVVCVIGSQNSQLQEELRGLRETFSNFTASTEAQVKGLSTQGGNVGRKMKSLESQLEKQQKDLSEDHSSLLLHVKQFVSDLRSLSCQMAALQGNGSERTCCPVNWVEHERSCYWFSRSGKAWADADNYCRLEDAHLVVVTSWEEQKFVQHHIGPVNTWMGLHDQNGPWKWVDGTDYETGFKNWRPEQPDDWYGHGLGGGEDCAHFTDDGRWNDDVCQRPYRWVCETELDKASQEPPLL
# B1: 194C10 (antibody, V domains shown)
# VH: QVQLQQWGAGLLKPSETLSLTCAVSGGSFRYYYWSWIRQPPGKGLEWFGEINHSGSTNYNPSLKSRVTISIDTSKNQFSLKLRSVTAADTAVYYCARDYGAFDIWGQGTMVTVSS
# VL: EIVLTQSPGTLSLSPGERATLSCRASPSVNSGYLAWYQQKPGQTPRLLIFGASSRATGIPDRFSASGSGADFTLTISRLEPEDFAVYFCQQYESSPWTFGQGTKVEIK
# B2: 194A4 (antibody, V domains shown)
# VH: QVQLVQSGTEVKKPGASLKVSCKASGYTFTVYYLNWVRQAPGQGLEWMGWINPNSGGTNYAQKFQGRVTMTRDTSISTAYMELSRLRSDDTAVYYCARGYDILTGWGQGTLVTVSS
# VL: EIVLTQSPGTLSLSPGERATLSCRASRGVSNIYLAWYQQKPGQAPRLLIYGASNRATGIPDRFSGSGSGTDFTLTISRLEPEDFAVYYCQHNDYSMFTFGPGTKVDIK
# B3: 4H6 (antibody, V domains shown)
# VH: QVQLVQSGAEVKKPGASVKVSCKASGYTFTDYYLHWVRQAPGQGLEWMGWIHPNSGGTNYAQKFQGRVTMTRDTSISTAYMGLSSLRSDDTAVYYCARDGTSSFDYWGQGTLVTVSS
# VL: DIQMTQSPSSVSASVGDRVTITCRASQGISRWLAWYQQKPGKAPKLLIYGASSLQSGVPSRFSGSGSGTDFTLTISSLQPEDFAIYYCQQANSFPFTFGPGTKVDIK
# notes: tested as antibody purified from hybridoma supernatant or made recombinantly
# B4: 198D2 (antibody, V domains shown)
# VH: QVQLVESGGGVVQPGRSLRLSCAASGFTFRSYGMHWVRQAPGKGLEWVAVIIYDGSYKYYADSVKGRFTISRDNSKNTLYLQMNSLRAEDTAVYYCARTYSGGMDVWGQGTTVTVSS
# VL: QSVLTQPPSVSAAPGQKVTISCSGSSSNIGSNYVSWYQQLPGTAPKVLIYDNNKRPSGIPDRFSGSKSGTSATLGITGLQTGDEADYYCGTWDSRLNVGVFGGGTKLTVL
# B5: 218G4 (antibody, V domains shown)
# VH: QVQLVESGGGVVQPGRSLRLSCAASGFTFSSYGLHWVRQAPGKGLEWVAVIWYDGSNKYYADSVKGRFTISRDNSKNTLYLQMNSLRVEDTAVYYCANWYYYYYGMDVWGQGTTVTVSS
# VL: B4 VL with S31N, V47L, I49L, N52S, D61A, R95S, V98T, G99V
# B6: 202A3 (antibody, V domains shown)
# VH: QVQLEQSGAEVKKPGASVKVSCKASGYTFTSYDINWVRQATGQGLEWLGWMNPKRGNTGYAQKFQGRVTMTRNTSISTAHMELSSLRSEDTAVYYCARGRYSREDYYYYYDMDVWGQGTTVTVSS
# VL: DIQMSQSPSSLSASVGDRVTITCRASQGIRNDLGWYQQKPGKAPKRLICAASRLQSGVPSRFSGSGSGTEFTLTISSLQPEDFAIYYCLQHHDYPFTFGPGTKVDIK
# B7: 4A2 (antibody, V domains shown)
# VH: QVQLVQSGTEVKKPGASVKVSCKASGYTFTNYDINWVRQATGQGLEWMGWMHPNSGNTGYAQKFQGRVTLTRNTSISTAYMELSSLRSEDTAVYYCASSSGWYYFDYWGQGTLVTVSS
# VL: DIVMTQSPDSLAVSLGERATINCKSSQSILHSSNNNNYLAWFQQKPGQPPKLLLYWASTRESGVPDRFSGSGSGTDFTLTISSLQPEDVAVYYCQQYYNTPVTFGPGTKVGIK
# B8: 193E7 (antibody, V domains shown)
# VH: QVQLQQWGAGLLKPSETLSLTCAVYGGSFSGYFWTWIRQPPGKGLEWIGEINHSGSTNYNPSLKSRVTISVDTSKNQFSLKLSSVTAADTAVYYCARDYGADYWGQGTLVAVSA
# VL: DIQMTQSPSSLSASVGDRVTITCRASQGIRNDLGWYQQKPGKAPKRLIYSASSLQRGVPSRFSGSGSGTEFTLTISSLQPEDFATYYCLQHKRYPLTFGGGTKVEIK
# B9: 4B1 (antibody, V domains shown)
# VH: QVQLQESGPGLVKPSETLSLTCSVSGDSISSYSWSWIRQPAGKGLEWIGRIYTSGSTNYIPSLKSRITMSVDTSKKQFSLKLSSVTAADTAVYYCARDLKSSGCLFFDYWGQGTLVTVSS
# VL: DIQMTQSPSSLSASVGDRVTITCRASHTIRTYLNWYQQKPGKAPKLLIYAASSLQSGVPSRINGSGSGTDFTLTITNLQPEDFATYYCQQSYNISFTFGPGTKVDIK
# B10: 190F8 (antibody, V domains shown)
# VH: QVQLVESGGGVVQPGRSLRLSCAASGFTFSTYGMHWVRQAPGKGLEWVAVIWYDGSNKNYADSVKGRFTISRDNSKNTLYLQMNSLRAEDTAVYYCARDQGVGYDGLDVWGQGTTVTVSS
# VL: DIQMTQSPSSLSASVGDRVTITCRTSQGIGNYLAWFQQKPGKAPKSLLYKASSLQSGVPSKFSGSGSGTDFTLTISSLQPEDFATYYCQQYMTYPLTFGGGTKVEIK
# B11: 194C1 (antibody, V domains shown)
# VH: B10 VH with T31S, K58E, N59H, D99N, Q100R, D105Y
# VL: B10 VL with T25A, G30S, L48I, K50A, Q89L, Q90H, M92L
# B12: 197G3 (antibody, V domains shown)
# VH: B10 VH with A23V, T31S, Y32H, Q100P, G101S, L107M
# VL: DIQMTQSPSSLSASVGDRVTITCRASQGIGNHLAWFQQKPGKAPKSLIYAASSLQSGVPSKFSGSRSGTDFSLTISSLQPEDFATYYCQQYSNYPVTFGPGTKVDIK
# B13: 191G10 (antibody, V domains shown)
# VH: B10 VH with T31S
# VL: B10 VL with N31K, A51V
# B14: 198G3 (antibody, V domains shown)
# VH: B10 VH with R19K, S56T, Y80C
# VL: B10 VL with T5A, N31K, S56G
# B15: 191G1 (antibody, V domains shown)
# VH: B10 VH with T31S, K58E, N59H, Q100R, D105Y
# VL: B10 VL with T25A, G30S, L48I, K50A, Q90H, M92L
# Target: T1, human ASGR-1
# Experiment: FACS ligand blocking on CHO-S ASGR-1 cells; labelled ligand biotin-GalNAc-PAA (synthetic sugar)
# Method: (§1) All ASGR-1 antibodies that bound either human or mouse ASGR-1 stable CHO—S cells were then tested for ligand blocking using both a protein ligand and a synthetic sugar ligand. The method in brief is as follows: first, 20 ul of either CHO-Shuman or mouse ASGR-1 cells were added to wells of a 384 well plate (30 k cells/well) followed by spin and discarding the supernatant. Second, 10 ul of the antibodies (either purified from hybridoma supernatants or made recombinantly) were added in duplicate to the cells in a dilution series (200 nM top concentration, 1:2 serial dilution, 11 point curve) and were incubated for 30 min at 4 C. […] After 30 min incubation at 4C, the plate was spun and washed twice with FACS buffer+1 mM CaCl2 followed by the detection streptavidin-AF647 at 1:1000 dilution. After 30 min at 4C, the cells were spun and washed once and then 60 ul PI added at 1:1000 dilution and the plates delivered to a core flow cytometry facility. The plates were read and processed similarly to the cell binding method except the signal now represents an inhibition curve and typically decreases a function of increasing antibody concentration. IC50 nM potency and % Inhibition were reported. […] Differences in the ability of antibodies to block these two ligands could occur as a result of differences in, for example, avidity stemming from differences in the number and/or orientation of the ASGR binding terminal sugar residues of each ligand, steric hindrance between antibody and each ligand, and/or changes in the conformation of ASGR induced by antibody binding that selectively alters the binding of each ligand.
Binder,% Inhibition,IC50
B1,99%,
B2,60%,48 nM
B3,20%,8.1 nM
B4,99%,55 nM
B5,99%,71 nM
B6,96%,32 nM
B7,70%,54 nM
B8,60%,33 nM
B9,36%,42 nM
B10,83%,44 nM
B11,89%,72 nM
B12,74%,15 nM
B13,99%,56 nM
B14,81%,5 nM
B15,78%,62 nM

# Target: T1, human ASGR-1
# Experiment: FACS ligand blocking on CHO-S ASGR-1 cells; competitor biotinylated asialofetuin
# Method: as §1
Binder,% Inhibition,IC50
B1,99%,
B2,99%,57 nM
B3,85%,12 nM
B4,99%,22 nM
B5,99%,28 nM
B6,98%,16 nM
B7,99%,11 nM
B8,99%,30 nM
B9,75%,64 nM
B10,98%,34 nM
B11,99%,34 nM
B12,90%,29 nM
B13,99%,27 nM
B14,99%,26 nM
B15,99%,24 nM
